In US20150241442A1:

Biological target: Leukocyte Function Antigen-1 (LFA-1), on cells (Jurkat T cells, human T cells, PBMC) (human) (UniProt P20701)
Assay: cell-based or functional assay

Sequence of Leukocyte Function Antigen-1 (LFA-1), on cells (Jurkat T cells, human T cells, PBMC) (human) (P20701 26-1170, chain 1 of 2): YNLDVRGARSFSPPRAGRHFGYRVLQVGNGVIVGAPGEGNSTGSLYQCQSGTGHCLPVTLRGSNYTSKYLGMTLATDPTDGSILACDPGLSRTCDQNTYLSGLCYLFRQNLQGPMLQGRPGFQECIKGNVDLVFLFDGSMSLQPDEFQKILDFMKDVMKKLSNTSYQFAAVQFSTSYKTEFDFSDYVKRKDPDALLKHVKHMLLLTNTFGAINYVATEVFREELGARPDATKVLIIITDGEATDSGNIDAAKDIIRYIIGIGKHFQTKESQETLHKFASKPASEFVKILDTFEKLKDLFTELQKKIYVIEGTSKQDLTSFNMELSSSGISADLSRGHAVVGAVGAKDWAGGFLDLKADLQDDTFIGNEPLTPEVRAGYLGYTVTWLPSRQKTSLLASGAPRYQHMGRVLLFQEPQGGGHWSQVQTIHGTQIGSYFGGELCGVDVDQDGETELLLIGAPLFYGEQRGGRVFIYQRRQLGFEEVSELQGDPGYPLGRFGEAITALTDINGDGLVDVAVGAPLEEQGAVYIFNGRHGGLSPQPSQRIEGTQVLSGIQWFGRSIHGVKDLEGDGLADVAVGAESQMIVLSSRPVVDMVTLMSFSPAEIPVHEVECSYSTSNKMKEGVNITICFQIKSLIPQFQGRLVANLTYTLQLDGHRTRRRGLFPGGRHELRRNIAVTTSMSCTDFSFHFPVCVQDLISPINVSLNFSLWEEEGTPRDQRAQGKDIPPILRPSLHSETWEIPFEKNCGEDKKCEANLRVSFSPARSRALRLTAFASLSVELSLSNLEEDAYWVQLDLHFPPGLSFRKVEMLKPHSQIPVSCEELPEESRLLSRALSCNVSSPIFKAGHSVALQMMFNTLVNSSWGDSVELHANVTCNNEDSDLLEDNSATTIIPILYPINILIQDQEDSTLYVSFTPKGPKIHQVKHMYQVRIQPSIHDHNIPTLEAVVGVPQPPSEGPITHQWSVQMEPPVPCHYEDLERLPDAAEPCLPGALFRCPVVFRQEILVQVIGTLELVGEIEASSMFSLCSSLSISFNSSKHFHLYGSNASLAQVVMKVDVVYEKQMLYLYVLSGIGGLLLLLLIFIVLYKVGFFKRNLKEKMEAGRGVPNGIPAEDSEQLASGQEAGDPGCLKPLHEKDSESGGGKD
Sequence of Leukocyte Function Antigen-1 (LFA-1), on cells (Jurkat T cells, human T cells, PBMC) (human) (P05107 23-769, chain 2 of 2, further chain): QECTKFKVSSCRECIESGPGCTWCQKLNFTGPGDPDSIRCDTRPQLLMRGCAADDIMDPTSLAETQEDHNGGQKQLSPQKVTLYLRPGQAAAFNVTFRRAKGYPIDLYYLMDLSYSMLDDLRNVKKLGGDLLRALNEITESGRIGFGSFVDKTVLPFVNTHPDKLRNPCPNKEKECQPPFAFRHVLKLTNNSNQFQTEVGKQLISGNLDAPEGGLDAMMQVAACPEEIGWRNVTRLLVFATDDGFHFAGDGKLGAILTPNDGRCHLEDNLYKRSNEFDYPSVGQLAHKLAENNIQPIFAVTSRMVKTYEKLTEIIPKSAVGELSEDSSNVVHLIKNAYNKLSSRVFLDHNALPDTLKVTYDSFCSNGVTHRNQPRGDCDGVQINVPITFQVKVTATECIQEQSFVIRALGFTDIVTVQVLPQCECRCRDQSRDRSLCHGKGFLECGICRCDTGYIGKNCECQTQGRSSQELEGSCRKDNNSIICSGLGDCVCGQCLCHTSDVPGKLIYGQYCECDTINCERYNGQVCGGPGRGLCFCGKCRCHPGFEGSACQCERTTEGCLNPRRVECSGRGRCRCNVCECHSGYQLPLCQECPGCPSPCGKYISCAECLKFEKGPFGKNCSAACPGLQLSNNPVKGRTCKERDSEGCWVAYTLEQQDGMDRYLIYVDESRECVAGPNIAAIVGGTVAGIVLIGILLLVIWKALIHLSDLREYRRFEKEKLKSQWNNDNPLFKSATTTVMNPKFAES
Sequence of recombinant human ICAM-1-FC (P05362 28-480 limits assumed): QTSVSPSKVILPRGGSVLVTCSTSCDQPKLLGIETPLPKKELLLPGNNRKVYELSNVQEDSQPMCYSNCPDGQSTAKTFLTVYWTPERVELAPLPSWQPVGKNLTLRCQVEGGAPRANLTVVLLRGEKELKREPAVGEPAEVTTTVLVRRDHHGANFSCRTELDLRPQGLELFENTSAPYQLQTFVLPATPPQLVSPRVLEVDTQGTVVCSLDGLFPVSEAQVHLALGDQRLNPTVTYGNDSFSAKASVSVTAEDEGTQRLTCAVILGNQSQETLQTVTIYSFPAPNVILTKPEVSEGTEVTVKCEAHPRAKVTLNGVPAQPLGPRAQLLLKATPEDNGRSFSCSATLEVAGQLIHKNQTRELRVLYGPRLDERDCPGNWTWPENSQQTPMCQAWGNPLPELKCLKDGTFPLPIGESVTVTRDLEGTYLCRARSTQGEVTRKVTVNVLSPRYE

recombinant human ICAM-1-FC (from UniProt P05362 28-480) (Fc fusion)
frequency of the perforin negative population, CD56+CD8med cells: 13.7% | granzyme-A negative population, CD56+CD8high cells: 4.12%
